B1: LINE1-full (parent)
chain: UACGUAGGUGGUUUUCCCCUGAUAGUGCUAAGGGGGCCUGGAAGUUUGGACUGGGCAGAGCUCAACACAGCGUGGCAAAGUGGCUGUGGCUAGACUGCCUCUCUGGAUUCCUCGUCACUCAGCAGGGCAUCUCUGAGAGAAAUGCC

Variants of B1 are the subject of the data set. The experiment in a line: self-cleavage, relative activity (ratio to wild type); higher = more cleavage; in vitro, sequencing; the parent is a self-cleaving ribozyme.
Regarding UACGUAGGUGGUUUUCCCCUGAUAGUGCUAAGGGGGCCUGGAAGUAUGGACUGGGCAGAGCUCAACAUAGCGUGGCAAAGUGGCUGUGGCUAGACUGCCUCUCUGGAUUCCUCGUCACUCAGCAGGGCAUCUCUGAGAGAAAUGCC, the self-cleavage came out at 0.07.

Regarding UACGUAGGUGGUUUUCCCCUGAUAGUGCUAAGGGGGCCUGGAAGUAUGGACUGGGCAGAGCUCAACACAGCGUGGCGAAGUGGCUGUGGCUAGACUGCCUCUCUGGAUUCCUCGUCACUCAGCAGGGCAUCUCUGAGAGAAAUGCC, the self-cleavage stood at 2.14. Take UACGUAGGUGGUUUUCCCCUGAUAGUGCUAAGGGGGCCUGGAAGUAUGGACUGGGCAGAGCUCCACACAGCGUGGCAAAGUGGCUGUGGCUAGACUGCCUCUCUGGAUUCCUCGUCACUCAGCAGGGCAUCUCUGAGAGAAAUGCC: the self-cleavage turned out to be 0.24. The result for UACGUAGGUGGUUUUCCCCUGAUAGUGCUAAGGGGGCCUGGAAGUAUGGACUGGGCAGAGCUCAACACAGCGUGGCAAAGUGGCUGUGGCUAGACUGCCUCUCUGGAUUCCUCGUCACUCAGCAGGGCUUCUCUGAGAGAAAUGCC reads 0.78; that for UACGUAGGUGGUUUUCCCCUGAUAGUGCUAAGGGGGCCUGGAAGUAUGGACUGGGCAGAGCUCAACACAGCGUGGCAAAGUGGCUGUGGCUAGACUGCCUCUCUGGAUUCCUCGUCACUCAGCAGGGCAUCUCUGAGAGUAAUGCC, 1.12; that for UACGUAGGUGGUUUUCCCCUGAUAGUGCUAAGGGGGCCUGGAAGUAUGGACUGGGCAGAGCUCAACACAGCGUGGCAAAGUGGCUGUGGCUAGACUGCCUCUCUGGAUUCCUCGUCACUCAGCAGGGCAUCUCUGAGAGGAAUGCC, 0.9. The same measure for UACGUAGGUGGUUUUCCCCUGAUAGUGCUAAGGGGGCCUGGAAGUAUGGACUGGGCAGAGCUCAACACUGCGUGGCAAAGUGGCUGUGGCUAGACUGCCUCUCUGGAUUCCUCGUCACUCAGCAGGGCAUCUCUGAGAGAAAUGCC: 0.05. Consider UACGUAGGUGGUUUUCCCCUGAUAGUGCUAAGGGGGCCUGGAAGUAUGGACUGGGCAGAGCUCAACACGGCGUGGCAAAGUGGCUGUGGCUAGACUGCCUCUCUGGAUUCCUCGUCACUCAGCAGGGCAUCUCUGAGAGAAAUGCC, for which the self-cleavage worked out at 0.36. The result for UACGUAGGUGGUUUUCCCCUGAUAGUGCUAAGGGGGCCUGGAAGUAUGGACUGGGCAGAGCUCAACACAGCGUGGCAAAGUGGCUGUGGCUAGACUGCCUCUCUGGAUUCCUUGUCACUCAGCAGGGCAUCUCUGAGAGAAAUGCC reads 1.16. The same measure for UACGUAGGUGGUUUUCCCCUGAUAGUGCUAAGGGGGCCUGGAAGUAUGGACUGGACAGAGCUCAACACAGCGUGGCAAAGUGGCUGUGGCUAGACUGCCUCUCUGGAUUCCUCGUCACUCAGCAGGGCAUCUCUGAGAGAAAUGCC: 0.24; for UACGUAGGUGGUUUUCCCCUGAUAGUGCUAAGGGGGCCUGGAAGUAUGGACUGGGCAGAGCUCAACACAACGUGGCAAAGUGGCUGUGGCUAGACUGCCUCUCUGGAUUCCUCGUCACUCAGCAGGGCAUCUCUGAGAGAAAUGCC: 0.24; for UACGUAGGUGGUUUUCCCCUGAUAGUGCUAAGGGGGCCUGGAAGUAUGGACUGGGCAGAGCUCAACACAGCGUGGCAAAGUGGCUGUGGCUAGACUGCCUCUCUGGAUUCCUCGUCACUCAGCAGGGCAUCUCUGAAAGAAAUGCC: 0.98. The result for UACGUAGGUGGUUUUCCCCUGAUAGUGCUAAGGGGGCCUGGAAGUAUGGACUGGGCAGAGCUCAACACAGCGUGGCAAAGUGGCUGUGGCUAGACUGCCUCUCUGGAUUCCUCGUCACUCUGCAGGGCAUCUCUGAGAGAAAUGCC reads 1.43; that for UACGUAGGUGGUUUUCCCCUGAUAGUGCUAAGGGGGCCUGGAAGUAUGGACCGGGCAGAGCUCAACACAGCGUGGCAAAGUGGCUGUGGCUAGACUGCCUCUCUGGAUUCCUCGUCACUCAGCAGGGCAUCUCUGAGAGAAAUGCC, 1.56; that for UACGUAGGUGGUUUUCCCCUGAUAGUGCUAAGGGGGCCUGGAAGUAUGGACGGGGCAGAGCUCAACACAGCGUGGCAAAGUGGCUGUGGCUAGACUGCCUCUCUGGAUUCCUCGUCACUCAGCAGGGCAUCUCUGAGAGAAAUGCC, 1.33. Regarding UACGUAGGUGGUUUUCCCCUGAUAGUGCUAAGGGGGCCUGGAAGUAUGGACUGGGCAGAGCUCAACACAGCGUGGCAAAGUGGCUGUGGCUAGACUGCCUCUCUGGAUUCCUCGUCACUCAGCACGGCAUCUCUGAGAGAAAUGCC, the self-cleavage came to 1.35. The same measure for UACGUAGGUGGUUUUCCCCUGAUAGUGCUAAGGGGGCCUGGAAGUAUGGACUGGGCUGAGCUCAACACAGCGUGGCAAAGUGGCUGUGGCUAGACUGCCUCUCUGGAUUCCUCGUCACUCAGCAGGGCAUCUCUGAGAGAAAUGCC: 0.08; for UACGUAGGUGGUUUUCCCCUGAUAGUGCUAAGGGGGCCUGGAAGUAUGGACUGGGCAGAGCUCAACACAGCGUGGCAAGGUGGCUGUGGCUAGACUGCCUCUCUGGAUUCCUCGUCACUCAGCAGGGCAUCUCUGAGAGAAAUGCC: 1.06.

For the variant UACGUAGGUGGUUUUCCCCUGAUAGUGCUAAGGGGGCCUGGAAGUAUGGACUGGGCAGAGCUCAACACAGCGUGGCAAUGUGGCUGUGGCUAGACUGCCUCUCUGGAUUCCUCGUCACUCAGCAGGGCAUCUCUGAGAGAAAUGCC, the self-cleavage was determined as 2.16. The result for UACGUAGGUGGUUUUCCCCUGAUAGUGCUAAGGGGGCCUGGAAGUAUGGACUGGGCAGAGCUCAACACAGCGUGGCAAAGUGGCUGUGGCUAGACUGCCUCUCUGGAUUCCUCGUCACUCAGCAGGGCAUCUCUGGGAGAAAUGCC reads 1.48; that for UACGUAGGUGGUUUUCCCCUGAUAGUGCUAAGGGGGCCUGGAAGUAUGGACUGGGCAGAGCUCAACACAGCGUGGCAAAGUGGCUGUGGCUAGACUGCCUCUCUGGAUUCCUCGUCACUCAGCUGGGCAUCUCUGAGAGAAAUGCC, 1.11. Turning to UACGUAGGUGGUUUUCCCCUGAUAGUGCUAAGGGGGCCUGGAAGUAUGGACUGGGCAGAGCUCAACACAGCGUGGCAAAGUGGCUGUGGCUAGACUGCCUCUCUGGAUUCCUCGUCACUCAGCGGGGCAUCUCUGAGAGAAAUGCC, the self-cleavage was found to be 0.8.

UACGUAGGUGGUUUUCCCCUGAUAGUGCUAAGGGGGCCUGGAAGUAAGGACUGGGCAGAGCUCAACACAGCGUGGCAAAGUGGCUGUGGCUAGACUGCCUCUCUGGAUUCCUCGUCACUCAGCAGGGCAUCUCUGAGAGAAAUGCC: the self-cleavage was 1.09. The result for UACGUAGGUGGUUUUCCCCUGAUAGUGCUAAGGGGGCCUGGAAGUACGGACUGGGCAGAGCUCAACACAGCGUGGCAAAGUGGCUGUGGCUAGACUGCCUCUCUGGAUUCCUCGUCACUCAGCAGGGCAUCUCUGAGAGAAAUGCC reads 1.13; that for UACGUAGGUGGUUUUCCCCUGAUAGUGCUAAGGGGGCCUGGAAGUAUGGACUGGGCAGAGCCCAACACAGCGUGGCAAAGUGGCUGUGGCUAGACUGCCUCUCUGGAUUCCUCGUCACUCAGCAGGGCAUCUCUGAGAGAAAUGCC, 0.05. The same measure for UACGUAGGUGGUUUUCCCCUGAUAGUGCUAAGGGGGCCUGGAAGUAUGGACUGGGCAGAGCUCAACACAGCGUGGCAAAGUGGCUGUGGCUAGACUGCCUCUCUGGUUUCCUCGUCACUCAGCAGGGCAUCUCUGAGAGAAAUGCC: 1.36; for UACGUAGGUGGUUUUCCCCUGAUAGUGCUAAGGGGGCCUGGAAGUAUGGACUGGGCAGAGCUCAACACAGCGUGGCAAAGUGGCUGUGGCUAGACUGCCUCUCUGGGUUCCUCGUCACUCAGCAGGGCAUCUCUGAGAGAAAUGCC: 1.43; for UACGUAGGUGGUUUUCCCCUGAUAGUGCUAAGGGGGCCUGGAAGUAUGGACUGGGCAGAGCUCAACACAGAGUGGCAAAGUGGCUGUGGCUAGACUGCCUCUCUGGAUUCCUCGUCACUCAGCAGGGCAUCUCUGAGAGAAAUGCC: 0.25. The result for UACGUAGGUGGUUUUCCCCUGAUAGUGCUAAGGGGGCCUGGAAGUAUGGACUGGGCAGAGCUCAACACAGCGUGACAAAGUGGCUGUGGCUAGACUGCCUCUCUGGAUUCCUCGUCACUCAGCAGGGCAUCUCUGAGAGAAAUGCC reads 0.9; that for UACGUAGGUGGUUUUCCCCUGAUAGUGCUAAGGGGGCCUGGAAGUAUGGACUGGGCAGAGCUCAACACAGCGUGUCAAAGUGGCUGUGGCUAGACUGCCUCUCUGGAUUCCUCGUCACUCAGCAGGGCAUCUCUGAGAGAAAUGCC, 0.84. In the case of UACGUAGGUGGUUUUCCCCUGAUAGUGCUAAGGGGGCCUGGAAGUAUGGACUGGGCAGAGCUCAACACAGCGUGGCAAAGUGGCUGUGGCUAGACUGCCUCUCUGGAUUCCUCGUCACUCAGCAGGGCAUCUCUGAGAGAAAUGCU, the self-cleavage stood at 1.63. The result for UACGUAGGUGGUUUUCCCCUGAUAGUGCUAAGGGGGCCUGGAAGUAUGGACUGGGCAGAGCUCAACACAGCGUGGCAAAGUGGCUGUGGCUAGGCUGCCUCUCUGGAUUCCUCGUCACUCAGCAGGGCAUCUCUGAGAGAAAUGCC reads 0.16; that for UACGUAGGUGGUUUUCCCCUGAUAGUGCUAAGGGGGCCUGGAAGUAUGGACUGGGCAGAGCUCAACACAGCGUGGCAAAGUGGCUGUGGCUAGACUGCCUCUCUGGAUUCCUCGUCACUCAGCAGGGCAUCUCUGAGAGAAGUGCC, 1.45; that for UACGUAGGUGGUUUUCCCCUGAUAGUGCUAAGGGGGCCUGGAAGUAUGGACUGGGCAGAGCUCAACACAGCGAGGCAAAGUGGCUGUGGCUAGACUGCCUCUCUGGAUUCCUCGUCACUCAGCAGGGCAUCUCUGAGAGAAAUGCC, 1.35.

On to UACGUAGGUGGUUUUCCCCUGAUAGUGCUAAGGGGGCCUGGAAGUAUGGACUGGGCAGAGCUCAACUCAGCGUGGCAAAGUGGCUGUGGCUAGACUGCCUCUCUGGAUUCCUCGUCACUCAGCAGGGCAUCUCUGAGAGAAAUGCC, for which the self-cleavage amounted to 0.1. The same measure for UACGUAGGUGGUUUUCCCCUGAUAGUGCUAAGGGGGCCUGGAAGUAUGGACUGGGCAGAGCUCAACGCAGCGUGGCAAAGUGGCUGUGGCUAGACUGCCUCUCUGGAUUCCUCGUCACUCAGCAGGGCAUCUCUGAGAGAAAUGCC: 0.22; for UACGUAGGUGGUUUUCCCCUGAUAGUGCUAAGGGGGCCUGGAAGUAUGGACUGGGCAGAGCUCAACACAGCGUGGCAAAGUGGCUGUGGCUAGACUGCCUCUCUGGAUUCCUCGUCACUCAGCAGGGCAUCUCUGAGAGAGAUGCC: 1.36; for UACGUAGGUGGUUUUCCCCUGAUAGUGCUAAGGGGGCCUGGAAGUAUGGACUGGGCAGAGCUCAACACAGCGUGGCAAAGUGGCUGUGGCUAGACUGCCUCUCUGGAUUCCUCGUCACUCAGCAGGGCAUCUCUGAGAGAUAUGCC: 1.01.

With UACGUAGGUGGUUUUCCCCUGAUAGUGCUAAGGGGGCCUGGAAGUAUGGACUGGGCAGAGCUCAACACAGCGUGGCAAAGUGGCUGUGGCUAGACUGCCUCUCUGGAUUCCUCAUCACUCAGCAGGGCAUCUCUGAGAGAAAUGCC, the self-cleavage worked out at 1.08.

The values above are taken from the RNAGym collection of RNA variant scans (doi:10.7554/elife.90254).
